Reference: the supplement of paper PMC10567573

B1: PBXIP1 (parent)
chain: FGEDGIFRHDRLRFRDFVDALEDS

Variants of: B1
Test: protein stability index of a GFP-peptide fusion (GPS, HEK-293T) (PSI 1-6); higher = more stable
Details: c terminus: a fixed tail appended
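Further: lentivirally expressed fusions sorted by FACS into six bins by GFP to DsRed ratio, PSI derived from sequencing read proportions per bin multiplied by bin number.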

First: FGEDGIFRHDRLRFRDFVGALEDS [D19G]
Second: FGEDGIFRHDRLRFRDFVAALEDS [D19A]
The protein stability index of the first is lower: 2.37 for the first, 2.59 for the second.

Going from FGEDGIFRHDRLRFRDFVLALEDS [D19L] to FGEDGIFRHDRLRFRDFVFALEDS [D19F], the protein stability index rises from 1.61 to 2.22.

First: FGEDGIFRHDRLRFRDFVYALEDS [D19Y]
Second: FGEDGIFRHDRLRFRDFVSALEDS [D19S]
The protein stability index of the first is lower: 2.35 for the first, 2.4 for the second.

Compared with FGEDGIFRHDRLRFRDFVQALEDS [D19Q], FGEDGIFRHDRLRFRDFVPALEDS [D19P] is higher in protein stability index: 2.49 for the first, 2.53 for the second.

First: FGEDGIFRHDRLRFRDFVCALEDS [D19C]
Second: FGEDGIFRHDRLRFRDFVRALEDS [D19R]
The protein stability index of the first is lower: 2.47 for the first, 2.48 for the second.

Compared with FGEDGIFRHDRLRFRDFVNALEDS [D19N], FGEDGIFRHDRLRFRDFVWALEDS [D19W] is lower in protein stability index: 2.65 for the first, 2.18 for the second.

Compared with FGEDGIFRHDRLRFRDFVHALEDS [D19H], FGEDGIFRHDRLRFRDFVTALEDS [D19T] is lower in protein stability index: 2.9 for the first, 2.61 for the second.

Compared with FGEDGIFRHDRLRFRDFVEALEDS [D19E], FGEDGIFRHDRLRFRDFVIALEDS [D19I] is lower in protein stability index: 2.6 for the first, 1.91 for the second.

Going from FGEDGIFRHDRLRFRDFVKALEDS [D19K] to FGEDGIFRHDRLRFRDFVMALEDS [D19M], the protein stability index falls from 2.9 to 2.56.

First: FGEDGIFRHDRLRFRDFHDALEDS [V18H]
Second: FGEDGIFRHDRLRFRDFIDALEDS [V18I]
The protein stability index of the first is higher: 2.53 for the first, 2.17 for the second.

Going from FGEDGIFRHDRLRFRDFQDALEDS [V18Q] to FGEDGIFRHDRLRFRDFKDALEDS [V18K], the protein stability index falls from 3.49 to 3.13.

Going from FGEDGIFRHDRLRFRDFPDALEDS [V18P] to FGEDGIFRHDRLRFRDFDDALEDS [V18D], the protein stability index rises from 2.94 to 3.1.

Going from FGEDGIFRHDRLRFRDFEDALEDS [V18E] to FGEDGIFRHDRLRFRDFMDALEDS [V18M], the protein stability index falls from 3.5 to 2.87.

First: FGEDGIFRHDRLRFRDFRDALEDS [V18R]
Second: FGEDGIFRHDRLRFRDFWDALEDS [V18W]
The protein stability index of the first is higher: 3.05 for the first, 2.07 for the second.

Compared with FGEDGIFRHDRLRFRDFADALEDS [V18A], FGEDGIFRHDRLRFRDFYDALEDS [V18Y] is lower in protein stability index: 2.73 for the first, 2.4 for the second.

First: FGEDGIFRHDRLRFRDFGDALEDS [V18G]
Second: FGEDGIFRHDRLRFRDFTDALEDS [V18T]
The protein stability index of the first is lower: 3.16 for the first, 3.27 for the second.

Going from FGEDGIFRHDRLRFRDFSDALEDS [V18S] to FGEDGIFRHDRLRFRDFNDALEDS [V18N], the protein stability index rises from 3.11 to 3.14.

Going from FGEDGIFRHDRLRFRDFLDALEDS [V18L] to FGEDGIFRHDRLRFRDFFDALEDS [V18F], the protein stability index falls from 3.32 to 2.45.

Compared with FGEDGIFRHDRLRFRDFCDALEDS [V18C], FGEDGIFRHDRLRFRDTVDALEDS [F17T] is higher in protein stability index: 3.3 for the first, 3.61 for the second.

First: FGEDGIFRHDRLRFRDAVDALEDS [F17A]
Second: FGEDGIFRHDRLRFRDVVDALEDS [F17V]
The protein stability index of the first is higher: 3.46 for the first, 3.38 for the second.

Going from FGEDGIFRHDRLRFRDLVDALEDS [F17L] to FGEDGIFRHDRLRFRDKVDALEDS [F17K], the protein stability index rises from 2.77 to 3.09.

First: FGEDGIFRHDRLRFRDHVDALEDS [F17H]
Second: FGEDGIFRHDRLRFRDEVDALEDS [F17E]
The protein stability index of the first is lower: 3.25 for the first, 3.98 for the second.

Going from FGEDGIFRHDRLRFRDQVDALEDS [F17Q] to FGEDGIFRHDRLRFRDPVDALEDS [F17P], the protein stability index falls from 3.58 to 3.44.

First: FGEDGIFRHDRLRFRDMVDALEDS [F17M]
Second: FGEDGIFRHDRLRFRDSVDALEDS [F17S]
The protein stability index of the first is lower: 3.38 for the first, 3.69 for the second.

First: FGEDGIFRHDRLRFRDCVDALEDS [F17C]
Second: FGEDGIFRHDRLRFRDNVDALEDS [F17N]
The protein stability index of the first is lower: 3.12 for the first, 3.55 for the second.

Going from FGEDGIFRHDRLRFRDWVDALEDS [F17W] to FGEDGIFRHDRLRFRDRVDALEDS [F17R], the protein stability index rises from 2.79 to 3.69.

Compared with FGEDGIFRHDRLRFRDGVDALEDS [F17G], FGEDGIFRHDRLRFRDDVDALEDS [F17D] is higher in protein stability index: 3.57 for the first, 3.68 for the second.

First: FGEDGIFRHDRLRFRDIVDALEDS [F17I]
Second: FGEDGIFRHDRLRFRDYVDALEDS [F17Y]
The protein stability index of the first is higher: 3.19 for the first, 2.97 for the second.

Compared with FGEDGIFRHDRLRFRDFVDALEQS [D23Q], FGEDGIFRHDRLRFRDFVDALECS [D23C] is lower in protein stability index: 2.82 for the first, 2.21 for the second.

Compared with FGEDGIFRHDRLRFRDFVDALEYS [D23Y], FGEDGIFRHDRLRFRDFVDALEES [D23E] is lower in protein stability index: 2.62 for the first, 2.61 for the second.

First: FGEDGIFRHDRLRFRDFVDALEFS [D23F]
Second: FGEDGIFRHDRLRFRDFVDALENS [D23N]
The protein stability index of the first is lower: 1.92 for the first, 2.94 for the second.

Going from FGEDGIFRHDRLRFRDFVDALEAS [D23A] to FGEDGIFRHDRLRFRDFVDALEWS [D23W], the protein stability index falls from 2.22 to 1.84.

Going from FGEDGIFRHDRLRFRDFVDALEHS [D23H] to FGEDGIFRHDRLRFRDFVDALESS [D23S], the protein stability index falls from 2.34 to 2.22.

Going from FGEDGIFRHDRLRFRDFVDALEGS [D23G] to FGEDGIFRHDRLRFRDFVDALEVS [D23V], the protein stability index falls from 3.02 to 2.29.

Going from FGEDGIFRHDRLRFRDFVDALEKS [D23K] to FGEDGIFRHDRLRFRDFVDALERS [D23R], the protein stability index falls from 2.23 to 1.98.

First: FGEDGIFRHDRLRFRDFVDALETS [D23T]
Second: FGEDGIFRHDRLRFRDFVDALEMS [D23M]
The protein stability index of the first is higher: 2.55 for the first, 2.32 for the second.

Going from FGEDGIFRHDRLRFRDFVDALELS [D23L] to FGEDGIFRHDRLRFRDFVDALEIS [D23I], the protein stability index falls from 2.42 to 1.93.

First: FGEDGIFRHDRLRFRDFVDALEPS [D23P]
Second: FGEDGIFRHDRLRFRDFVDALEDL [S24L]
The protein stability index of the first is higher: 2.35 for the first, 2.32 for the second.

Going from FGEDGIFRHDRLRFRDFVDALEDK [S24K] to FGEDGIFRHDRLRFRDFVDALEDC [S24C], the protein stability index rises from 3.08 to 3.48.

Going from FGEDGIFRHDRLRFRDFVDALEDR [S24R] to FGEDGIFRHDRLRFRDFVDALEDI [S24I], the protein stability index falls from 2.76 to 2.29.

First: FGEDGIFRHDRLRFRDFVDALEDN [S24N]
Second: FGEDGIFRHDRLRFRDFVDALEDE [S24E]
The protein stability index of the first is higher: 3.15 for the first, 2.24 for the second.

Compared with FGEDGIFRHDRLRFRDFVDALEDQ [S24Q], FGEDGIFRHDRLRFRDFVDALEDT [S24T] is higher in protein stability index: 2.74 for the first, 2.85 for the second.

Going from FGEDGIFRHDRLRFRDFVDALEDM [S24M] to FGEDGIFRHDRLRFRDFVDALEDG [S24G], the protein stability index rises from 2.2 to 2.32.

Going from FGEDGIFRHDRLRFRDFVDALEDV [S24V] to FGEDGIFRHDRLRFRDFVDALEDH [S24H], the protein stability index rises from 2.43 to 2.66.

Compared with FGEDGIFRHDRLRFRDFVDALEDY [S24Y], FGEDGIFRHDRLRFRDFVDALEDF [S24F] is higher in protein stability index: 1.78 for the first, 1.8 for the second.

Going from FGEDGIFRHDRLRFRDFVDALEDA [S24A] to FGEDGIFRHDRLRFRDFVDALEDP [S24P], the protein stability index rises from 2.21 to 2.51.

Going from FGEDGIFRHDRLRFRDFVDALEDD [S24D] to FGEDGIFRHDRLRFRDFVDALEDW [S24W], the protein stability index falls from 3.5 to 1.93.
